Source: patent US11814435B2, “Therapeutic antibodies and their uses” (PFIZER INC., priority 2015, dated 2023)
Substitutions are numbered along the chain they refer to. Each block holds one molecule with its values, some of them ahead of it.

Key:
[1] = biological target: CD3 (Homo sapiens, UniProt P07766); experiment: Biacore kinetics of anti-CD3 hIgG2dA bispecifics at 37° C.; assay type: binding
[2] = tested on: Cyno BCMA; experiment: Kinetics and affinity of cyno BCMA/human IgG interactions by SPR (Bio-Rad Proteon XPR36); assay type: binding, cynomolgus; settings: 37° C.
[3] = biological target: T1, hBCMA (human BCMA) (Homo sapiens, UniProt Q02223); experiment: Kinetics and affinity of hBCMA/human IgG interactions by SPR (Bio-Rad Proteon XPR36); assay type: binding; settings: human BCMA, 37° C.
T1 sequence (Q02223 1-184): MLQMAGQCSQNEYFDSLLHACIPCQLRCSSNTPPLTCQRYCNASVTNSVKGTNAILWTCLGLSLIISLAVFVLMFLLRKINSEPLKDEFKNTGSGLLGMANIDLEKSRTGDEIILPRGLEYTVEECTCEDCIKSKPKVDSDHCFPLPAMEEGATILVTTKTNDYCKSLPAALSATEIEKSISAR
Outline: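 Anti-BCMA IgGs were amine-coupled to a GLC chip, and hBCMA analyte was injected as a single-cycle kinetic titration (0.08, 0.4, 2, 10, 50 nM; 2 min each) at 37° C. or 25° C. in HBS-T+ pH 7.4 with 1 mg/mL BSA. Dissociation was followed 2 hours, with double-referenced 1:1 Langmuir-plus-mass-transport fitting.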

CD3, sequence (P07766 23-126 limits assumed): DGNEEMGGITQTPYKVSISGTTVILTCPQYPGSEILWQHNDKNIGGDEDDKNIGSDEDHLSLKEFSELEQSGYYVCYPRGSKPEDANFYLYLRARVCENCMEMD
CD3, sequence (P04234 22-105 partner limits assumed): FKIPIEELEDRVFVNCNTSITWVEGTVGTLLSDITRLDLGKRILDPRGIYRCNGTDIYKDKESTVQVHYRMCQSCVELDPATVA

Kd [1]: 40.4 nM
ka [1]: 586000 M⁻¹ s⁻¹
kd [1]: 0.0237 s⁻¹
B1: h2B4-1d_Ep: anti-EpCam/CD3 bispecific, human IgG2dA, anti-CD3 arm h2B4-1d (h2B4) (antibody, V domains shown)
VH: EVQLVESGGGLVQPGGSLRLSCAASGFTFSDYYMTWVRQAPGKGLEWVAFIRNRARGYTSDHNASVKGRFTISRDNAKNSLYLQMNSLRAEDTAVYYCARDRPSYYVLDYWGQGTTVTVSS
VL: DIVMTQSPDSLAVSLGERATINCTSSQSLFNVRSRKNYLAWYQQKPGQPPKLLISWASTRESGVPDRFSGSGSGTDFTLTISSLQAEDVAVYYCKQSYDLFTFGSGTKLEIK
modifications: left off: another chain or arm of the molecule; a dimerising Fc or GST; small tags and cut ends

kd Cyno [2]: 0.000412 s⁻¹
ka Human [3]: 6.74e+06 M⁻¹ s⁻¹
kd Human [3]: 0.000124 s⁻¹
B2: COMBO_Rd4_6 nM_C11: anti-BCMA antibody (antibody, V domains shown)
VH: EVQLLESGGGLVQPGGSLRLSCAASGFTFSSYPMSWVRQAPGKGLEWVSAIGGSGGSLGYADSVKGRFTISRDNSKNTLYLQMNSLRAEDTAVYYCARYWPMDSWGQGTLVTVSS
VL: EIVLTQSPGTLSLSPGERATLSCRASQSVSPLYLAWYQQKPGQAPRLLMYDASIRATGIPDRFSGSGSGTDFTLTISRLEPEDFAVYYCQQYKAWPLTFGQGTKVEIK
ka Cyno [2]: 2.64e+06 M⁻¹ s⁻¹

kd Cyno [2]: 0.00172 s⁻¹
ka Human [3]: 4.32e+06 M⁻¹ s⁻¹
kd Human [3]: 0.000497 s⁻¹
B3: COMBO_Rd4_0.6 nM_C05: anti-BCMA antibody (antibody, V domains shown)
VH: B2 VH with P33A, S35N, L58T, G59Y, D103S, S104L
VL: B2 VL with P31S, L32T, K93M, A94S
ka Cyno [2]: 1.94e+06 M⁻¹ s⁻¹

kd Cyno [2]: 0.00423 s⁻¹
ka Human [3]: 5.11e+06 M⁻¹ s⁻¹
kd Human [3]: 0.00106 s⁻¹
B4: COMBO_Rd4_0.6 nM_C11: anti-BCMA antibody (antibody, V domains shown)
VH: B2 VH with I51A, G52L, L58T, G59Y, D103S, S104L
VL: B2 VL with P31V, L32R, K93G, A94S, L97I
ka Cyno [2]: 2.2e+06 M⁻¹ s⁻¹

kd Cyno [2]: 0.00101 s⁻¹
ka Human [3]: 8.68e+06 M⁻¹ s⁻¹
kd Human [3]: 0.000801 s⁻¹
B5: COMBO_Rd4_0.6 nM_C17: anti-BCMA antibody (antibody, V domains shown)
VH: B2 VH with G59P, S104I
VL: B2 VL with S28G, V29I, P31S, L32T, K93A, A94Y
ka Cyno [2]: 3.06e+06 M⁻¹ s⁻¹

kd Cyno [2]: 0.000486 s⁻¹
ka Human [3]: 1.38e+07 M⁻¹ s⁻¹
kd Human [3]: 0.00027 s⁻¹
B6: COMBO_Rd4_6 nM_C12: anti-BCMA antibody (antibody, V domains shown)
VH: EVQLLESGGGLVQPGGSLRLSCAASGFTFSSYPMSWVRQAPGKGLEWVSAALGSGGSTYYADSVKGRFTISRDNSKNTLYLQMNSLRAEDTAVYYCARYWPMDSWGQGTLVTVS
VL: B2 VL with P31A, L32S, K93M, A94S
ka Cyno [2]: 3.29e+06 M⁻¹ s⁻¹

Kd [2]: 0.058 nM
kd Cyno [2]: 0.000105 s⁻¹
Kd [3]: 0.021 nM
ka Human [3]: 3.49e+06 M⁻¹ s⁻¹
kd Human [3]: 7.37e-05 s⁻¹
B7: A02_Rd4_0.6 nM_C06: anti-BCMA antibody (antibody, V domains shown)
VH: B2 VH with P33A, S35N, G52S, G53D, L58A, G59W, D103S, S104L
VL: B2 VL with P31V, K93Q, A94R
ka Cyno [2]: 1.81e+06 M⁻¹ s⁻¹

kd Cyno [2]: 0.000934 s⁻¹
ka Human [3]: 1.05e+07 M⁻¹ s⁻¹
kd Human [3]: 0.000371 s⁻¹
B8: COMBO_Rd4_6 nM_C07: anti-BCMA antibody (antibody, V domains shown)
VH: B2 VH with G59P, D103A, S104D
VL: B2 VL with S28P, V29I, P31S, L32S, K93Q, A94G
ka Cyno [2]: 3.94e+06 M⁻¹ s⁻¹

kd Cyno [2]: 0.00136 s⁻¹
ka Human [3]: 1.05e+06 M⁻¹ s⁻¹
kd Human [3]: 0.000443 s⁻¹
B9: COMBO_Rd4_6 nM_C02: anti-BCMA antibody (antibody, V domains shown)
VH: B2 VH with P33A, S35N, G52S, G53D, S57F, L58V, G59Y
VL: B2 VL with P31S, L32S, K93E, A94F
ka Cyno [2]: 795000 M⁻¹ s⁻¹

kd Cyno [2]: 0.000531 s⁻¹
ka Human [3]: 7.39e+06 M⁻¹ s⁻¹
kd Human [3]: 0.00021 s⁻¹
B10: COMBO_Rd4_0.6 nM_C23: anti-BCMA antibody (antibody, V domains shown)
VH: B2 VH with I51L, G52F, L58T, G59Y
VL: B2 VL with A25P, S26R, P31S, L32S, K93Q, A94D
ka Cyno [2]: 2.81e+06 M⁻¹ s⁻¹

kd Cyno [2]: 0.000808 s⁻¹
ka Human [3]: 4.35e+06 M⁻¹ s⁻¹
kd Human [3]: 0.000282 s⁻¹
B11: COMBO_Rd4_0.6 nM_C30: anti-BCMA antibody (antibody, V domains shown)
VH: B2 VH with L58T, G59Y
VL: B2 VL with P31Y, L32M, M49I, A94S
ka Cyno [2]: 1.68e+06 M⁻¹ s⁻¹

kd Cyno [2]: 0.000979 s⁻¹
ka Human [3]: 7.86e+06 M⁻¹ s⁻¹
kd Human [3]: 0.000155 s⁻¹
B12: COMBO_Rd4_0.6 nM_C19: anti-BCMA antibody (antibody, V domains shown)
VH: B2 VH with G59P
VL: B2 VL with P31A, L32V, K93R
ka Cyno [2]: 2.92e+06 M⁻¹ s⁻¹

kd Cyno [2]: 0.000645 s⁻¹
ka Human [3]: 8.66e+06 M⁻¹ s⁻¹
kd Human [3]: 0.000328 s⁻¹
B13: COMBO_Rd4_0.6 nM_C14: anti-BCMA antibody (antibody, V domains shown)
VH: B2 VH with G59P, S104I
VL: B2 VL with P31A, K93Y, A94G
ka Cyno [2]: 3.48e+06 M⁻¹ s⁻¹

kd Cyno [2]: 0.000494 s⁻¹
ka Human [3]: 8.57e+06 M⁻¹ s⁻¹
kd Human [3]: 0.000185 s⁻¹
B14: COMBO_Rd4_0.6 nM_C02: anti-BCMA antibody (antibody, V domains shown)
VH: B2 VH with G59P
VL: B2 VL with Q27I, S28A, P31S, L32T, K93M, A94V
ka Cyno [2]: 3.01e+06 M⁻¹ s⁻¹

kd Cyno [2]: 0.00165 s⁻¹
ka Human [3]: 3.03e+06 M⁻¹ s⁻¹
kd Human [3]: 0.000775 s⁻¹
B15: COMBO_Rd4_6 nM_C22: anti-BCMA antibody (antibody, V domains shown)
VH: B2 VH with P33A, S35N, I51C, G52L, G53D, L58T, G59Y
VL: B2 VL with P31S, L32S, K93Q, A94G
ka Cyno [2]: 1.7e+06 M⁻¹ s⁻¹

kd Cyno [2]: 0.000428 s⁻¹
ka Human [3]: 8.99e+06 M⁻¹ s⁻¹
kd Human [3]: 0.000169 s⁻¹
B16: COMBO_Rd4_6 nM_C08: anti-BCMA antibody (antibody, V domains shown)
VH: B2 VH with G56T, S57W, L58T, G59Y
VL: B2 VL with P31S, L32S, K93Q, A94K
ka Cyno [2]: 3.06e+06 M⁻¹ s⁻¹

kd Cyno [2]: 0.000185 s⁻¹
ka Human [3]: 1.69e+06 M⁻¹ s⁻¹
kd Human [3]: 0.000126 s⁻¹
B17: A02_Rd4_6 nM_C03: anti-BCMA antibody (antibody, V domains shown)
VH: B2 VH with P33A, S35N, G52S, G53D, L58T, G59Y, S104I
VL: B2 VL with P31N, K93Q, A94G
ka Cyno [2]: 1.17e+06 M⁻¹ s⁻¹

kd Cyno [2]: 0.000284 s⁻¹
ka Human [3]: 7.65e+06 M⁻¹ s⁻¹
kd Human [3]: 0.000146 s⁻¹
B18: COMBO_Rd4_0.6 nM_C20: anti-BCMA antibody (antibody, V domains shown)
VH: B2 VH with G59P
VL: B2 VL with P31Y, K93M, A94E
ka Cyno [2]: 3.09e+06 M⁻¹ s⁻¹

kd Cyno [2]: 0.000318 s⁻¹
ka Human [3]: 8.85e+06 M⁻¹ s⁻¹
kd Human [3]: 0.000143 s⁻¹
B19: COMBO_Rd4_6 nM_C09: anti-BCMA antibody (antibody, V domains shown)
VH: B2 VH with G52F, G53A, L58T, G59Y
VL: B2 VL with P31A, L32Q, K93Q
ka Cyno [2]: 2.37e+06 M⁻¹ s⁻¹

kd Cyno [2]: 0.000174 s⁻¹
ka Human [3]: 5.5e+06 M⁻¹ s⁻¹
kd Human [3]: 9.75e-05 s⁻¹
B20: A02_Rd4_0.6 nM_C09: anti-BCMA antibody (antibody, V domains shown)
VH: B2 VH with P33A, S35N, G52S, G53D, L58M, G59W, D103S, S104L
VL: B2 VL with P31S, L32S, K93Q, A94S
ka Cyno [2]: 2.13e+06 M⁻¹ s⁻¹

kd Cyno [2]: 0.000346 s⁻¹
ka Human [3]: 1.04e+07 M⁻¹ s⁻¹
kd Human [3]: 0.000319 s⁻¹
B21: COMBO_Rd4_0.6 nM_C09: anti-BCMA antibody (antibody, V domains shown)
VH: B2 VH with G59P, S104I
VL: B2 VL with P31S, L32T, K93Q, A94E
ka Cyno [2]: 3.77e+06 M⁻¹ s⁻¹

kd Cyno [2]: 0.0164 s⁻¹
ka Human [3]: 6.96e+06 M⁻¹ s⁻¹
kd Human [3]: 0.0387 s⁻¹
B22: P5A2_VHVL: anti-BCMA antibody (antibody, V domains shown)
VH: B2 VH with P33A, S35N, G52S, G53D, L58T, G59Y, S104I
VL: B2 VL with P31S, L32S, K93G, A94S
ka Cyno [2]: 1.61e+06 M⁻¹ s⁻¹
